Control mAb binding % of wt binding (% of wt binding) data for one substance are collected here from US10844127.

In one experiment the target is HER3 ECD R426A (human) (UniProt P21860). Briefly: FACS, HER3 ECD alanine mutants on cells.
Another experiment deals with HER3 ECD F409A (human) (UniProt P21860). Briefly: FACS, HER3 ECD alanine mutants on cells.
HER3 ECD F409A (human), sequence (P21860 20-643 F409A): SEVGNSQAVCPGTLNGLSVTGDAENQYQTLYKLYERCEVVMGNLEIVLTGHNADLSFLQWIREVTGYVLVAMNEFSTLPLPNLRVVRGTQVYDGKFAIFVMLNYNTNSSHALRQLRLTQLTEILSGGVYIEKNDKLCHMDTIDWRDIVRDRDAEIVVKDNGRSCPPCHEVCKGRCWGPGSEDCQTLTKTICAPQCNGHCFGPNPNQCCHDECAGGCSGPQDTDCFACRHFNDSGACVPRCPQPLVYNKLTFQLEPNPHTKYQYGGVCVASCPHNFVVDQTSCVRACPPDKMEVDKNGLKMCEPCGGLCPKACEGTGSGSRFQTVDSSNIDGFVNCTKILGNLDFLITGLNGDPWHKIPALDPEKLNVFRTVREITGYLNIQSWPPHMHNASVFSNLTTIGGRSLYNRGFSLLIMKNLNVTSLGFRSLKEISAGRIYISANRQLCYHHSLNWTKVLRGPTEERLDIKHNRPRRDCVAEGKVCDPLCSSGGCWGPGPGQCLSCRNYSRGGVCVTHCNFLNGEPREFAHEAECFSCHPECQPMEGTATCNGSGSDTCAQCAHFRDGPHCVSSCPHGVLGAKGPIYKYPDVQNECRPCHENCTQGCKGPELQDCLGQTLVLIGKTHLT

HER3 ECD R426A (human), sequence (P21860 20-643 R426A): as the sequence (P21860 20-643 F409A) above, with A390F, R407A counted along it

Turning to control mAb 66223 (antibody), the Control mAb binding % of wt binding (% of wt binding) was 93.1 with HER3 ECD R426A (human) and 79.6 in the experiment with HER3 ECD F409A (human).
